Reference: paper doi:10.1101/2021.05.21.445118

Legend:
Assay in all cases: SPR
[1] = biological target: human extracellular ACE2 p.Ser19Pro (human) (UniProt Q9BYF1)
[2] = biological target: human extracellular ACE2 p.Glu35Lys (human) (UniProt Q9BYF1)
[3] = biological target: human extracellular ACE2 p.Lys26Arg (human) (UniProt Q9BYF1)
[4] = biological target: human extracellular ACE2 p.Glu329Gly (human) (UniProt Q9BYF1)

Question: How did the ΔΔG against WT ACE2 [1] turn out when “SARS-CoV-2 Spike receptor binding domain (from UniProt P0DTC2) (domain or fragment)” was run?
Answer: 0.59 kcal/mol

Question: What about the ΔΔG against WT ACE2 [2] of the same substance?
Answer: -0.36 kcal/mol

Question: What about the ΔΔG against WT ACE2 [3] of the same substance?
Answer: 0.26 kcal/mol

Question: What about the ΔΔG against WT ACE2 [4] of the same substance?
Answer: -0.09 kcal/mol
